{"source": "paper PMC2847530", "about": "(Molecular Biology of the Cell, 2010)", "molecular_target": "T1, recombinant hexahistidine-tagged ScSec4 (S. cerevisiae, UniProt P07560 1-215)", "T1 sequence": "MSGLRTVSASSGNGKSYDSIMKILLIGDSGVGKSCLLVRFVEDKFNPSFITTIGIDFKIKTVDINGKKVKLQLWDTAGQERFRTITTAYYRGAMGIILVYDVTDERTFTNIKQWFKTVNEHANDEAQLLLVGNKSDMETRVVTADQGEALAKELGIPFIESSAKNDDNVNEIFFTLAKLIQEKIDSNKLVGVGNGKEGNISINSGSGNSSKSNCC", "experiment": "[…]) in EDTA binding buffer"}
{"binder": "GST-ScSec2^1-160 (domain or fragment) MDASEEAKRVSIQVTSLSTQLIESVDKQSHLEEQLNKSLKTIASQKAAIENYNQLKEDYNTLKRELSDRDDEVKRLREDIAKENELRTKAEEEADKLNKEVEDLTASLFDEANNMVADARKEKYAIEILNKRLTEQLREKDTLLDTLTLQLKNLKKVMHS", "values": [{"measurement": "binding result", "value": "binds"}]}
